# From publication PMC9554752, “Complement membrane attack complex is an immunometabolic regulator of NLRP3 activation and IL-18 secretion in human macrophages” (Frontiers in Immunology, 2022)
# Target: the molecule itself
# Assay: Western blot of dimer and monomer bands after SDS-PAGE; hMDMs incubated with MAC (+/- anti-C7) or 5 uM MitoPQ for 3 hours; cells treated with 80 mM MMTS for 10 min at RT before lysis; % dimer = SI dimer/(SI dimer + SI monomer) x 100, expressed relative to untreated control
protein,measurement,value
"mitochondrial peroxiredoxin 3 (natural protein, human (endogenous in hMDMs), UniProt P30048 62-256, looked up, peroxiredoxin 3 (Prx3), mitochondrial, endogenous in human monocyte-derived macrophages; detected with rabbit anti-Prx3 (Abcam Ab73349); Cells were incubated in 80 mM methylmethanethiosulfonate (MMTS) for 10 min before lysis; also called Prx3; Prx; source: endogenous, hMDM (human monocyte-derived macrophage) lysate) APAVTQHAPYFKGTAVVNGEFKDLSLDDFKGKYLVLFFYPLDFTFVCPTEIVAFSDKANEFHDVNCEVVAVSVDSHFSHLAWINTPRKNGGLGHMNIALLSDLTKQISRDYGVLLEGSGLALRGLFIIDPNGVIKHLSVNDLPVGRSVEETLRLVKAFQYVETHGEVCPANWTPDSPTIKPSPAASKEYFQKVNQ",stoichiometry N,2
